In this experiment the target is CfaE, tip-localized minor adhesive subunit of CFA/I fimbriae (enterotoxigenic Escherichia coli) (UniProt P25734). The experiment in a line: […], fluorescence at 320 nm; […].

In turn, “mtCfaA (CfaA variant with the triple residue substitution T112I/L114I/V116I on the G1 strand) (natural protein)” displayed a mid-point dissociation concentration of GdnCl of 0.966 M.

For the origin of these results see PMC7531860.
